Assay results from PMC8497518, “ssDNA recombineering boosts in vivo evolution of nanobodies displayed on bacterial surfaces” (Communications Biology, 2021).

How the values were obtained:
[1] = molecular target: TirM^EPEC, extracellular domain of the translocated intimin receptor (Tir) of enteropathogenic E. coli (enteropathogenic E. coli (EPEC)); experiment: SEC; purified TirM^EPEC in solution, size exclusion chromatography
[2] = molecular target: T1, TirM^EHEC, extracellular domain of the translocated intimin receptor (Tir) of enterohaemorrhagic E. coli (Escherichia coli EHEC; strain not …, UniProt Q7DB77, biotin (NHS-biotin, biotin:protein 20:1) for flow cytometry and MACS); experiment: flow cytometry on cells; E. coli displaying the intimin-Nb fusion (multivalent) incubated 90 min at 4 °C in PBS with biotinylated antigen (0-250 nM TirM^EPEC or 0-50 nM TirM^EHEC), stained with streptavidin-allophycocyanin; median fluorescence fitted to one-site specific binding; apparent KD; settings: one partner purified
T1 construct: Translocated intimin receptor Tir of enterohaemorrhagic E. coli (EHEC), extracellular TirM domain; also called EHEC TirM; former antigen

[3] = molecular target: T2, TirM^EPEC, extracellular domain of the translocated intimin receptor (Tir) of enteropathogenic E. coli (Escherichia coli EPEC; strain not …, UniProt B7UM99, biotin (NHS-biotin, biotin:protein 20:1) for flow cytometry and MACS); experiment: as above; settings: one partner purified
T2 construct: Translocated intimin receptor Tir of enteropathogenic E. coli (EPEC), extracellular TirM domain; also called EPEC TirM; new antigen

[4] = molecular target: T2, TirM^EPEC, extracellular domain of the …; experiment: ELISA; Maxisorp plates coated with His-tagged TirM at 10 ug/mL in PBS; purified monovalent Nb in 3% skimmed milk in PBS, 0-100 nM (TD4) or 0-400 nM (mutants), 90 min at 23 °C; detected with anti-E-tag; one-site specific binding fit; apparent KD; settings: both partners purified
Target sequence in this assay (B7UM99 255-362): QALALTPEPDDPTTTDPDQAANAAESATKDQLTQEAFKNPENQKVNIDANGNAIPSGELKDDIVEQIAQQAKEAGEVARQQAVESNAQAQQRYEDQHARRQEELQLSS

[5] = molecular target: T2, TirM^EPEC, extracellular domain of the …; experiment: as above; settings: both partners purified; remark: listed apart in the source
Target sequence in this assay (B7UM99 255-362): as above

[6] = molecular target: T1, TirM^EHEC, extracellular domain of the …; experiment: as above; settings: both partners purified
Target sequence in this assay (Q7DB77 252-362): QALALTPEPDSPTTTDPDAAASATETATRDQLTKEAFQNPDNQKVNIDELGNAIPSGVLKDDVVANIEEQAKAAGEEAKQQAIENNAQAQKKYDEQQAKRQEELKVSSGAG

| Molecule | Kd [2] [nM] | Kd [3] [nM] | Kd [5] [nM] | Kd [6] [nM] | further results |
| --- | --- | --- | --- | --- | --- |
| TirM^EPEC, extracellular domain of the translocated intimin receptor (Tir) of enteropathogenic E. coli (domain or fragment) | – | – | – | – | stoichiometry N [1]: 2 |
| Nb TD4 displayed on E. coli as a fusion to the outer membrane anchoring domain of intimin (VHH, VHH TD4; multivalent on the bacterial surface; also called parental Nb; non-evolved TD4; not shown: intimin outer membrane anchoring domain, N-terminal, kept) VHH: QVQLVDAGGGSVQAGGSLTLSCVASGAAYSTNLLGWFRQAPGKEREGVASIYRGNSATNYADSVKGRFTISQDKTKYTIYLQMNSLKPEDSAMYYCAHGTAPYWHTPIPTLSEDKYFYWGQGTQVTVSS | 0.41 | – | – | – | – |
| Nb TD4^H107Y displayed on E. coli as a fusion to the outer membrane anchoring domain of intimin (VHH, as the VHH of m3 with H107Y (CDR3); Evolved from TD4 by DIvERGE mutagenesis and MACS selection; also called Nb H107Y; not shown: intimin outer membrane anchoring domain, N-terminal, kept) VHH: QVQLVDAGGGSVQAGGSLTLSCVASGAAYSTNLLGWFRQAPGKEREGVASIYRGNSATNYADSVKGRFTISQDKTKYTIYLQMNSLKPEDSAMYYCAHGTAPYWYTPIPTLSEDKYFYWGQGTQVTVSS | 0.57 | 33.9 | – | – | – |
| Nb TD4^H107Y, secreted His6-tagged VHH-HlyA fusion (monovalent, purified) (VHH, as the VHH of m7 with H107Y; also called Nb H107Y) VHH: QVQLVDAGGGSVQAGGSLTLSCVASGAAYSTNLLGWFRQAPGKEREGVASIYRGNSATNYADSVKGRFTISQDKTKYTIYLQMNSLKPEDSAMYYCAHGTAPYWYTPIPTLSEDKYFYWGQGTQVTVSS | – | – | 20.1 | 47.7 | Kd [4]: 20.8 ± 2.31 nM |
| Nb TD4^D116G displayed on E. coli as a fusion to the outer membrane anchoring domain of intimin (VHH, as the VHH of m3 with D116G (CDR3); Evolved from TD4 by DIvERGE mutagenesis and MACS selection; also called Nb D116G; not shown: intimin outer membrane anchoring domain, N-terminal, kept) VHH: QVQLVDAGGGSVQAGGSLTLSCVASGAAYSTNLLGWFRQAPGKEREGVASIYRGNSATNYADSVKGRFTISQDKTKYTIYLQMNSLKPEDSAMYYCAHGTAPYWHTPIPTLSEGKYFYWGQGTQVTVSS | 0.58 | 17.9 | – | – | – |
| Nb TD4^D116G, secreted His6-tagged VHH-HlyA fusion (monovalent, purified) (VHH, as the VHH of m7 with D116G; also called Nb D116G) VHH: QVQLVDAGGGSVQAGGSLTLSCVASGAAYSTNLLGWFRQAPGKEREGVASIYRGNSATNYADSVKGRFTISQDKTKYTIYLQMNSLKPEDSAMYYCAHGTAPYWHTPIPTLSEGKYFYWGQGTQVTVSS | – | – | 397 | 137 | – |
| Nb TD4, secreted His6-tagged VHH-HlyA fusion (monovalent, purified) (VHH, VHH TD4, as the VHH of m3; No cleavage of the HlyA part or the His tag is described; the fusion was detected by anti-E-tag in ELISA; also called parental TD4; non-evolved TD4; source: E. coli HB2151 with pVDL9.3 (HlyBD) and a pEHLYA derivative, secreted, purified from culture medium (Talon resin)) VHH: QVQLVDAGGGSVQAGGSLTLSCVASGAAYSTNLLGWFRQAPGKEREGVASIYRGNSATNYADSVKGRFTISQDKTKYTIYLQMNSLKPEDSAMYYCAHGTAPYWHTPIPTLSEDKYFYWGQGTQVTVSS | – | – | – | 5.55 | – |
| Nb TD4^T108R, secreted His6-tagged VHH-HlyA fusion (monovalent, purified) (VHH, as the VHH of m7 with T108R; also called Nb T108R) VHH: QVQLVDAGGGSVQAGGSLTLSCVASGAAYSTNLLGWFRQAPGKEREGVASIYRGNSATNYADSVKGRFTISQDKTKYTIYLQMNSLKPEDSAMYYCAHGTAPYWHRPIPTLSEDKYFYWGQGTQVTVSS | – | – | 176 | 4.61 | – |
| Nb TD4^T108R displayed on E. coli as a fusion to the outer membrane anchoring domain of intimin (VHH, as the VHH of m3 with T108R (CDR3); Evolved from TD4 by DIvERGE mutagenesis and MACS selection; also called Nb T108R; not shown: intimin outer membrane anchoring domain, N-terminal, kept) VHH: QVQLVDAGGGSVQAGGSLTLSCVASGAAYSTNLLGWFRQAPGKEREGVASIYRGNSATNYADSVKGRFTISQDKTKYTIYLQMNSLKPEDSAMYYCAHGTAPYWHRPIPTLSEDKYFYWGQGTQVTVSS | 0.36 | 27.6 | – | – | – |
